Assay results published in article PMC2676576 (Structure (London, England : 1993), 2009).

Experiments:
bovine ubiquitin = bovine ubiquitin (bovine, UniProt P0CG53 1-76); assay: SPR
[1] = molecular target: STAM(10-390) of the ΔCT construct (human, UniProt Q92783 10-390); assay: AUC
STAM(10-390) of the ΔCT construct, sequence (Q92783 10-390, stated change not applied): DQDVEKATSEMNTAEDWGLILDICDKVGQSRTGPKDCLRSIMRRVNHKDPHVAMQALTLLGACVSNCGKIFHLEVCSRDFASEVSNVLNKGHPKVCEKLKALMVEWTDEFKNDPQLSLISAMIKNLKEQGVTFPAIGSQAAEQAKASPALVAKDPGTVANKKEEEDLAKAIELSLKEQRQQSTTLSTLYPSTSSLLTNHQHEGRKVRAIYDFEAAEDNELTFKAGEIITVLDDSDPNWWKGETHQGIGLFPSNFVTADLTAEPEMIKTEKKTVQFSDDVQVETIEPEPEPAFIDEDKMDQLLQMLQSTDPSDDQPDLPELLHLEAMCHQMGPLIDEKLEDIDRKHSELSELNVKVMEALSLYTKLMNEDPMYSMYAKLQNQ

B1: his-tagged STAM VHS domain (residues 1-143) (domain or fragment)
chain: not shown
Bovine ubiquitin
  Kd: 157 µM

B2: Hrs(1-557) of the ΔCT construct (domain or fragment, human, UniProt O14964 1-557, looked up)
chain: MGRGSGTFERLLDKATSQLLLETDWESILQICDLIRQGDTQAKYAVNSIKKKVNDKNPHVALYALEVMESVVKNCGQTVHDEVANKQTMEELKDLLKRQVEVNVRNKILYLIQAWAHAFRNEPKYKVVQDTYQIMKVEGHVFPEFKESDAMFAAERAPDWVDAEECHRCRVQFGVMTRKHHCRACGQIFCGKCSSKYSTIPKFGIEKEVRVCEPCYEQLNRKAEGKATSTTELPPEYLTSPLSQQSQLPPKRDETALQEEEELQLALALSQSEAEEKERLRQKSTYTSYPKAEPMPSASSAPPASSLYSSPVNSSAPLAEDIDPELARYLNRNYWEKKQEEARKSPTPSAPVPLTEPAAQPGEGHAAPTNVVENPLPETDSQPIPPSGGPFSEPQFHNGESEESHEQFLKALQNAVTTFVNRMKSNHMRGRSITNDSAVLSLFQSINGMHPQLLELLNQLDERRLYYEGLQDKLAQIRDARGALSALREEHREKLRRAAEEAERQRQIQLAQKLEIMRQKKQEYLEVQRQLAIQRLQEQEKERQMRLEQQKQTVQMR
[1]
  stoichiometry N: 1 Hrs:STAM
